Results published in patent publication US20220144922A1 (Adimab, published 2022).
Numbering of substitutions follows the chain as printed.

B1: ADI-15610 (antibody, V domains shown)
VH: EVQLLESGAEVKKPGSSVKVSCKASGGTFSSYAITWVRQAPGQGLEWMGGIIPILGTTTYAQRFQGRVTITADKSTTTAYMELSRLRSEDTAVYYCAKTVSQYPNTYNYGMDVWGQGTTVTVSS
VL: EIVMTQSPSSLSASVGDRVTITCRASQSVSIYLNWYQQKPGKTPELLIYGASRLQSGVPSRFSGSGSGTDFTLTISSLQPEDFATYYCLQTYSTPLTFGQGTKVEIK
notes: IgG; also called Antibody Number 175
B2: ADI-15596 (antibody, V domains shown)
VH: EVQLVESGGALVKPGGSLRLSCVGTGLTFTTAYMSWARQAPGKGLEWVGRILSKSDGGTTDYPTPVKGRFTISRDESKNTLYLQMNSLKIEDTAVYYCTTDRGITARPIFDSWGQGTLVTVSS
VL: QSVLTQPPSVSGALGRRVTISCTGSSSNIGAGYDVHWYRQLPGTAPKLLIYGNTKRPSGVPDRFSGSKYATSASLAITGLQADDDADYYCQSYDGGLSGYVFGTGTKVTVL
notes: IgG
B3: ADI-15654 (antibody, V domains shown)
VH: QVQLVQSGAEVKRPGSSVKVSCKASGGTSSSYIISWVRQAPGQGLEWMGGIIPIPISGAPTYAQKFQGRANYAQKFEGRLTITADRLTSTAYMELSSLTSEDTAVYYCVRDERNGGYWGQGTLVTVSS
VL: QSALTQPASVSGSPGQSITISCTGTSNDVGAYNHVSWYQQHPGKAPKLMIYDVTNRPSGVSNRFSGSKSGNTASLTIFGLQTDDEADYYCSSYTISSTLVFGGGTQLTVL
notes: IgG; also called Antibody Number 218
B4: ADI-15662 (antibody, V domains shown)
VH: QVQLQESGPGLVKPSETLSLTCTVSGGSVSRGSYYWTWIRQPPGKGLEWIGYIYYSGSTNYNPSLKSRVTISVDTSKNQFSLKLSSVTAADTAVYYCARDIGEDKYGTYYGMDVWGQGTTVTVSS
VL: EIVMTQSPATLSLSPGERATLSCRASQSVSSSLAWYQQKPGQAPRLLIYGASNRATGIPARFSGSGSGTDFTLTISSLEPEDFAVYYCQQRTNWPPVTFGPGTKVEIK
notes: IgG
B5: ADI-15594 (antibody, V domains shown)
VH: EVQLVESGGHLVQPGGSLRLSCAASGFTFSSYSMNWVRQAPGKGLEWISYISSSSSTMYYADSVKGRFTMSRDNAKNSLYLQMNSLRDEDTALYYCARDFPPINLAATTRNYYYYVMDVWGQGTTVTVSS
VL: DIQLTQSPSSLSASVGDRVTITCRASQSISSYLNWYQQKPGKAPNLLIYATSNLKSGVPSRFSGSGSGTDFTLTISSLQPEDFATYYCQQSYSTSYTFGQGTKVDIK
notes: IgG
B6: ADI-15632 (antibody, V domains shown)
VH: QVQLVQSGGGLVQPGRSLRLSCTASGFSFSDYGVTWVRQAPGKGLEWIGFVRTKGYGGTTEYAASVRGRFTISRDDSKSVAYLQLNSLKVEDTAVYYCSGASRGFWSGPTYYYFGMDVWGHGTTVTVSS
VL: EIVLTQSPLSLAVTPGEPASISCRSSQSLLHGNGYNYLDWYLQKPGQSPQLLIFWGSYRASGAPDRFSASGSGSEFTLKIRRVEAEDVGVYYCMQPLQTTFGQGTKVDIK
notes: IgG; also called Antibody Number 197
B7: ADI-15617 (antibody, V domains shown)
VH: EVQLVESGGGLVQPGGSLRISCAASGFSISSHAVSWVRQAPGKGLEWVSVISGSGGDTHSVVQGRGSGTYYADSVKGRFTISRDNVRNTVYLQMNSLRVEDTAVYYCAKDDPTLFWSGSGYYGMDVWGQGTTVTVSS
VL: DIRVTQSPSSLSASVGDRVTITCQASQGISDSLNWYQQKPGKAPKLLIYGASKLEPGVSSRFSGRGSGRDFTFTISSLQPEDIGTYYCQQYDNLPLTFGPGTKLEIK
notes: IgG; also called Antibody Number 182
B8: ADI-15663 (antibody, V domains shown)
VH: QVQLVQSGGGLVKPGGSLRLSCAASGFTFSSYTMNWVRQAPGKGLEWVSSITGGSSFTNYADSLEGRFTISRDNAKSSLFLQMNSLRVEDTAVYYCARDQPGTIFGVVQDYWGQGTLVTVSS
VL: QSVLTQPPSVSGAPGQRVTISCTGGSSNIGAGYDVHWYQQLPGTAPKLLIYGNSNRPSGVPDRFSGSKSGTSASLAITGLQAEDEADYYCQSYDSRLSVVFGGGTKVTVL
notes: IgG
B9: ADI-15602 (antibody, V domains shown)
VH: EVQLLESGGGVVQPGKSLRLSCVASGFTFGDYGMHWVRQAPGKGLEWVAVISDGGSTKYYADSVKGRFTIARDNSKNTLNLQMNSLRAEDTAVYYCAKDLAWIFGLGASYMDVWGQGTLVTVSS
VL: DIQLTQSPGTLSLSPGERATLSCRASQTVSSSYLAWYQQKPGQAPRLLIYDASSRATGIPDRFSGSGSGTDFTLTISRLEPEDFAVYYCQQYGSSPFGLTFGGGTKVEIK
notes: IgG
B10: ADI-15609 (antibody, V domains shown)
VH: EVQLLESGGGVVQPGRSLKLSCAASGFSFTTDVMHWIRQAPGKGLEWVAVISTDGANSYYAESVKGRFTISRDNSKNTLFLQMSSLRAEDTAVYYCASQGYHYVNMADVGVPSFDHWGQGTLVTVSS
VL: ETTLTQSPSSLSASVGDRVTITCRARRSIDNYLNWYQHKPGTAPKLLIYAVSSLPSGVPSRFSGSGSGADFTLTISSLQPEDLATYYCQQSYMTPPTFGQGTKLEIK
notes: IgG
B11: ADI-15603 (antibody, V domains shown)
VH: QVQLVQSGGGLVQPGGSLRLSCAASGFTFGRHAMTWVRQAPGKGLEWVAGITATGDPTYYPDSVKGRFAVSRDNSRNTLYLQMDSLRVEDTALYYCARSWDDYGDLDWYFALWGRGTMVTVSS
VL: EIVMTQSPAILSVSPGERATLSCRASQSVSSSLAWYQQKPGQAPRLLIYGASTRATGIPPRFSGSGSGTQFTLTISSLQSEDVAVYYCQQYSDWPPLTFGGGTKVEIK
notes: IgG
B12: ADI-15606 (antibody, V domains shown)
VH: B11 VH with Q1E, V5L, Q6E, G30R, H32Y, G50A, P57T, V88A, R98K, M118L
VL: B11 VL with E1D, V83F
notes: IgG
B13: ADI-15628 (antibody, V domains shown)
VH: QVQLVQSGGGVVQPGRSLRLSCAASGFTFSDFSMHWVRQAPGKGLEWVALISNDGSNKYYSDSLKGSFIISRDNSKNTLYLQLNSLGAEDTALYYCARDAVPHYDYVWGNFDYWGPGTLVTVSS
VL: QPVLTQPASVSASPGQSITISCTGTSSDVGGYNYVSWYQQHPGKAPKLIVYEVSNRPSGVSNRFSGSKSGNTASLTISGLQADDEADYYCSSYTSFTPVVFGGGTKVTVL
notes: IgG
B14: ADI-15652 (antibody, V domains shown)
VH: B13 VH with Q1E, V5L, Q6E, P116Q
VL: B13 VL with P2S, V50I, V107L
notes: IgG

How the values were obtained:
[1] = molecular target: T1, postfusion RSV F ectodomain (F ΔFP), subtype A (respiratory syncytial virus subtype A, UniProt P03420 26-109; P03420 147-524); assay: BLI, IgG on sensor
T1 construct: extracellular domain; also called Postfusion subtype A
Experimental: (§1) IgG binding to DS-Cav1 and FA FP was determined by BLI measurements using a FortéBio Octet HTX instrument (Pall Life Sciences). […] Data was analyzed using the ForteBio Data Analysis Software 7. The data was fit to a 1:1 binding model to calculate an association and dissociation rate, and KD was calculated using the ratio kd/kₐ.

[2] = molecular target: RSV F protein of subtype A strain A2, on virus (respiratory syncytial virus subtype A …, UniProt P03420 26-574); assay: cell-based or functional assay
[3] = molecular target: RSV F protein of subtype B strain 18537, on virus (respiratory syncytial virus subtype B …, UniProt P13843 26-574); assay: cell-based or functional assay
[4] = molecular target: T2, prefusion-stabilized RSV F ectodomain (DS-Cav1), subtype B (respiratory syncytial virus subtype B); assay: BLI, IgG on sensor
T2 construct: extracellular domain; also called Prefusion subtype B
Experimental: as §1

[5] = molecular target: T3, postfusion RSV F ectodomain, subtype B (respiratory syncytial virus subtype B); assay: BLI, IgG on sensor
T3 construct: extracellular domain; also called Postfusion subtype B
Experimental: as §1

Row | Binder | Kd [1] [nM] | Neut IC50 (ug/ml) subtype A [2] [µg/mL] | Neut IC50 (ug/ml) subtype B [3] [µg/mL] | Kd [4] [nM] | binding result [1] | Kd [5] [nM]
1 | B1 | 0.417 | 0.727 | > 10 | – | – | –
2 | B2 | – | 4.48 | > 10 | 47.5 | – | –
3 | B3 | – | 3.76 | 3.27 | 4.47 | no binding (tested: BLI response <0.05 nm) | –
4 | B4 | 3.09 | 6.25 | > 10 | – | – | –
5 | B5 | – | 3.25 | 3.28 | 0.549 | – | –
6 | B6 | 2.25 | 1.42 | 5.72 | 29.4 | – | –
7 | B7 | – | 0.022 | 0.038 | 0.71 | no binding (tested: BLI response <0.05 nm) | –
8 | B8 | 2.32 | 0.003 | 0.019 | 0.287 | – | –
9 | B9 | – | 0.046 | 0.015 | 0.807 | – | –
10 | B10 | – | 0.022 | > 10 | 0.628 | – | –
11 | B11 | – | 0.795 | 0.273 | 6.97 | – | 11.9
12 | B12 | – | > 10 | 0.802 | 5.75 | – | 5.89
13 | B13 | 2.47 | 0.014 | 0.034 | 0.659 | – | –
14 | B14 | 4.98 | 0.012 | 0.036 | 0.377 | – | –
